Patent US12331319B2, “Respiratory and sweat gland ionocytes” (The Broad Institute, Inc., priority 2017, dated 2025)

System: cultured proximal and distal airway epithelium
Test: IL-13-induced mucous metaplasia (goblet cell differentiation) in cultured proximal and distal airway epithelium (ALI)
Assay type: cell-based, mouse
Details: rIL-13 25 ng/mL vs control; epithelia from proximal vs distal trachea, Foxj1-GFP mice n=6; p<0.001
Description: Transwell cultures. Cells were cultured and expanded in complete SAGM (small airway epithelial cell growth medium; Lonza, CC-3118) containing TGF-β/BMP4/WNT antagonist cocktails and 5 μM Rock inhibitor Y-27632 (Selleckbio, S1049). To initiate air-liquid interface (ALI) cultures, airway basal stem cells were dissociated from mouse tracheas and seeded onto transwell membranes. After reaching confluence, media was removed from the upper chamber. Mucociliary differentiation was performed with PneumaCult-ALI Medium (StemCell, 05001). Differentiation of airway basal stem cells on an air-liquid interface was followed by directly visualizing beating cilia in real time after 10-14 days. […]
Statistical analysis of proximodistal mucous metaplasia. For the analysis in FIG. 18H,I, the extent of goblet cell hyperplasia was assessed using counts of Muc5ac^+ goblet cells, normalized to counts of GFP^+ ciliated cells. To quantify differences in the count values between the samples in different conditions (n=6, Foxj1-GFP mice), Applicants fit a negative binomial regression using the ‘glm.nb’ function from the ‘MASS’ package in R. Pairwise comparisons between means for each condition were computed using post hoc tests and p-values were adjusted for multiple comparisons using Tukey's HSD, implemented using the function ‘pairs’ from the ‘emeans’ package in R.

B1: rIL-13: recombinant murine IL-13 (Peprotech) used to induce mucous metaplasia (protein, UniProt P20109 19-131, looked up)
Interleukin-13: APGPVPRSVSLPLTLKELIEELSNITQDQTPLCNGSMVWSVDLAAGGFCVALDSLTNISNCNAIYRTQRILHGLCNRKAPTTVSSLPDTKIEVAHFITKLLSYTKQLFRHGPF
In the case of B1, the “induction of goblet cell differentiation (Muc5ac+ goblet cells / GFP+ ciliated cells)” value is reported as “much higher induction of goblet cell differentiation in the distal epithelium”.
